This note sets out measurements from patent publication US20090324600A1 (PIERRE FABRE MEDICAMENT, published 2009).

One assay has as its target integrin α3β1 (UniProt P26006). Put plainly: cell-based or functional assay.
The target of the next assay is integrin α6β4 (UniProt P23229). Description: cell-based or functional assay.
The next assay has as its target T1, murine CD151 (murine, UniProt O35566 1-253).
T1 construct: Endogenous protein in mouse tissue lysates on a Western blot; also called murine receptor
T1 sequence (looked up): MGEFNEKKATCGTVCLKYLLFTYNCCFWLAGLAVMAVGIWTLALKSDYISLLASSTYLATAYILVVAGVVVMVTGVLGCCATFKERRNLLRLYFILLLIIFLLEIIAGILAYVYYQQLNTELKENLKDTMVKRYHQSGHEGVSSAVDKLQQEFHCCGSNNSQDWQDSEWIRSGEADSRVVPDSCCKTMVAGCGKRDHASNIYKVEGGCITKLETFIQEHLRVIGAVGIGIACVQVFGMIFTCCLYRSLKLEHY
Description: Western blot of murine lung, pancreas and colon tissue lysates (10 µg total protein), non-reductive conditions. The method, then:
The specificity of the TS151 and TS151r antibodies was evaluated by Western blot. Lysates of human and murine lung, pancreas and colon tissues (Biochain, 10 μg of total proteins) and also increasing amounts of HT-29 cell lysate (10, 20 and 50 μg of total proteins) were placed on a 4-12% acrylamide gel (BioRad). After electrophoresis (non-reductive conditions), the proteins were transferred onto nitrocellulose membranes. The transfer membranes were then incubated with the purified TS151 and TS151r antibodies and then with a rabbit anti-mouse Ig polyclonal antibody coupled to peroxidase (GE Healthcare) before ECL-type visualisation.
In general terms: In western blotting, separated proteins are transferred to a membrane and probed.

Chain of integrin α6β4 (P23229 24-1130 limits assumed, chain 1 of 2): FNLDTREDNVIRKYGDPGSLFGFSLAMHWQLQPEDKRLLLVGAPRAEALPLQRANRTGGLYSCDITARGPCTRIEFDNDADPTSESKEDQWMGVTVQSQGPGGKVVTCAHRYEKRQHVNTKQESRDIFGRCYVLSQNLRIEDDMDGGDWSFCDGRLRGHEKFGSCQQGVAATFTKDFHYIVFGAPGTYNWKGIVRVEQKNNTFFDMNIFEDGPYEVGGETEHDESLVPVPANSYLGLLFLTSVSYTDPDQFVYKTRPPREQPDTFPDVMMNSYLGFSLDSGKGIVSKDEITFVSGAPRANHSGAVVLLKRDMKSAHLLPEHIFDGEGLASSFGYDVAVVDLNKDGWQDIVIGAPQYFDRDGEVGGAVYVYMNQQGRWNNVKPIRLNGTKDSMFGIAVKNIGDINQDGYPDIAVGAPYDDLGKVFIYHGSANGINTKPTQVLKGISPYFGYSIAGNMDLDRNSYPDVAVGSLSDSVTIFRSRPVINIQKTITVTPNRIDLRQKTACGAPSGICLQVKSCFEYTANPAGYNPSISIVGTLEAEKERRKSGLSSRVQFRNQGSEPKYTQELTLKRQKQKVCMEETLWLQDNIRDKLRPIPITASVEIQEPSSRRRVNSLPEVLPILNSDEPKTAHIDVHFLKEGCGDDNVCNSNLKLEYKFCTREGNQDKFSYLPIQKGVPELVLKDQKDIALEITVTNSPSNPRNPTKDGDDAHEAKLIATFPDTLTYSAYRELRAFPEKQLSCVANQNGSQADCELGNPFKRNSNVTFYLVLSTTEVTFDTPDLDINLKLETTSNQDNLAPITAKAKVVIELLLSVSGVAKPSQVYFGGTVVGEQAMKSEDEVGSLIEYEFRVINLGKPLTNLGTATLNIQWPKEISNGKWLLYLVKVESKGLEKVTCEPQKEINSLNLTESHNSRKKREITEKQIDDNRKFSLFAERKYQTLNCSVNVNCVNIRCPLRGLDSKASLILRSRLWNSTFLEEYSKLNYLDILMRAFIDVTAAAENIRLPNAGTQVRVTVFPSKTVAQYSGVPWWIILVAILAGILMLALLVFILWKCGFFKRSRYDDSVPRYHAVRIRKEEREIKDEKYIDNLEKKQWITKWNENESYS
Chain of integrin α6β4 (P16144 28-1822 limits assumed, chain 2 of 2, further chain): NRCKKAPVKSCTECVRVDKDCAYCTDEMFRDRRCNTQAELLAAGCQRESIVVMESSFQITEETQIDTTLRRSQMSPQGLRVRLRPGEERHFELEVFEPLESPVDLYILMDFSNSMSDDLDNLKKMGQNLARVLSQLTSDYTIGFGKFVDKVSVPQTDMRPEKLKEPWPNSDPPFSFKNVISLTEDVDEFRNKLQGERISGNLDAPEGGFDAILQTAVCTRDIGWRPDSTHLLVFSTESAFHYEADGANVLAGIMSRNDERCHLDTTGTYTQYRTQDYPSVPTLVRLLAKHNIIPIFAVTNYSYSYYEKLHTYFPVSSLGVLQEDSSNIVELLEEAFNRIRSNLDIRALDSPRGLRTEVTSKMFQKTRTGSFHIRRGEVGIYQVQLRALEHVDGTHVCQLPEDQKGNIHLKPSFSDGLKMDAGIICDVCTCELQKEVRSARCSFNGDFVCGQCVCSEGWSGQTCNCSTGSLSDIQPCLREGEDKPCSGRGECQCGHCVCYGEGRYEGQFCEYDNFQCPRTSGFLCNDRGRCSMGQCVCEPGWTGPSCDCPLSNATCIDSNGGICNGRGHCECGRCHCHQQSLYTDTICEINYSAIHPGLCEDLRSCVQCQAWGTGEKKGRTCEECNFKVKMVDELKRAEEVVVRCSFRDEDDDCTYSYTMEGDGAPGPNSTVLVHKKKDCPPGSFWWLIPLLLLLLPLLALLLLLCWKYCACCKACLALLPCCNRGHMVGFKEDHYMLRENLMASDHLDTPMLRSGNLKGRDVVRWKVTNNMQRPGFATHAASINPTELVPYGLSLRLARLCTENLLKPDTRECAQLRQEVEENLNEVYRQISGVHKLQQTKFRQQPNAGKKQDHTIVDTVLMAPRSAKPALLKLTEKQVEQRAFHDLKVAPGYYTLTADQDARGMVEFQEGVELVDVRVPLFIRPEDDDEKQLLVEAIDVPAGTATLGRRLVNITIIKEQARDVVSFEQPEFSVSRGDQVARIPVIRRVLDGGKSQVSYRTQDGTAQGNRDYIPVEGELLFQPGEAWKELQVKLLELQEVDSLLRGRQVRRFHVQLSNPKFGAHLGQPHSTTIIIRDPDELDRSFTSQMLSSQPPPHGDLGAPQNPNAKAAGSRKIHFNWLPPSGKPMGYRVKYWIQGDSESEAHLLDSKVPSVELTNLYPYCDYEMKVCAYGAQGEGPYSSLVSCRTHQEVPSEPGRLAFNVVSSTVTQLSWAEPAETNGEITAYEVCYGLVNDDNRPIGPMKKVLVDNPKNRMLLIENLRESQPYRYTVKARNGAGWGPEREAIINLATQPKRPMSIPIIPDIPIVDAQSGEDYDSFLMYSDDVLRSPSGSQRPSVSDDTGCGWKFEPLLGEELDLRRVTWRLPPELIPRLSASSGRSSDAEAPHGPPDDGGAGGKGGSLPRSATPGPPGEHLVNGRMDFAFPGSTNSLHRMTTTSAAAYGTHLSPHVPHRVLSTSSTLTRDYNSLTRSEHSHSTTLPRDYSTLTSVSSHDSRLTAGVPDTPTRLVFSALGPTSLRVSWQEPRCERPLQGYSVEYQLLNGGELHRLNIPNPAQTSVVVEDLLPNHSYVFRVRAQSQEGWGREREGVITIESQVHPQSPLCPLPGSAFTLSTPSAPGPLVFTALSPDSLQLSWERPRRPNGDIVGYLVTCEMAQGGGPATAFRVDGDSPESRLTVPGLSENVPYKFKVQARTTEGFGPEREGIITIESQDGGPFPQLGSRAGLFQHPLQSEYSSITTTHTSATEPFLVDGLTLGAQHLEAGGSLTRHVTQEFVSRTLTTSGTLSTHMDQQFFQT
Chain of integrin α3β1 (P26006 33-1051, chain 1 of 2): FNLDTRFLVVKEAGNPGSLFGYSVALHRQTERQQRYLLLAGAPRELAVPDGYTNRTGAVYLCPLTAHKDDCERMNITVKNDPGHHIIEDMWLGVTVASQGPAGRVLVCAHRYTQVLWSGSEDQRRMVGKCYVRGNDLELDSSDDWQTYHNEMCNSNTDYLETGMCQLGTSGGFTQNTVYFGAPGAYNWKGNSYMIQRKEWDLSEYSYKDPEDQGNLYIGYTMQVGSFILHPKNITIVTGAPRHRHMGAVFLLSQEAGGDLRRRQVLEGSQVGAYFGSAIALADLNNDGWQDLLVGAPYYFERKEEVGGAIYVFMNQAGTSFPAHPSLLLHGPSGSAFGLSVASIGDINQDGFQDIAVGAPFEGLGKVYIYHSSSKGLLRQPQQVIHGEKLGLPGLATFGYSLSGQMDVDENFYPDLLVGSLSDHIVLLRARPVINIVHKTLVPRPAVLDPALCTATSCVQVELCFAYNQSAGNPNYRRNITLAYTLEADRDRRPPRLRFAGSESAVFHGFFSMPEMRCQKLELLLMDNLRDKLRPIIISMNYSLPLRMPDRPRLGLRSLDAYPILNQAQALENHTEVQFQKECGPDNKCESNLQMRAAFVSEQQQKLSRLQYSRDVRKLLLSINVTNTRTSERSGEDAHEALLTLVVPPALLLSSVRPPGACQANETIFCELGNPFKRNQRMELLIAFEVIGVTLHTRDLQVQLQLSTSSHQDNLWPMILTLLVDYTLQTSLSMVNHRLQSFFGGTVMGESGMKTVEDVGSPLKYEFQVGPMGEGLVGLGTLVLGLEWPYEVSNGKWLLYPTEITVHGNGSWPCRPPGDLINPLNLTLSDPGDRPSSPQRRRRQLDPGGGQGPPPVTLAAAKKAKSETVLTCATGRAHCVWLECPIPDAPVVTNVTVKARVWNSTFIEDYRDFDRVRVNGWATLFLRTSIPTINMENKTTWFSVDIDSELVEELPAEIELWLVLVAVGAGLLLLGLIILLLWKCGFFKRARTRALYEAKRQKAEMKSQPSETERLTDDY
Chain of integrin α3β1 (P05556 21-798, chain 2 of 2, further chain): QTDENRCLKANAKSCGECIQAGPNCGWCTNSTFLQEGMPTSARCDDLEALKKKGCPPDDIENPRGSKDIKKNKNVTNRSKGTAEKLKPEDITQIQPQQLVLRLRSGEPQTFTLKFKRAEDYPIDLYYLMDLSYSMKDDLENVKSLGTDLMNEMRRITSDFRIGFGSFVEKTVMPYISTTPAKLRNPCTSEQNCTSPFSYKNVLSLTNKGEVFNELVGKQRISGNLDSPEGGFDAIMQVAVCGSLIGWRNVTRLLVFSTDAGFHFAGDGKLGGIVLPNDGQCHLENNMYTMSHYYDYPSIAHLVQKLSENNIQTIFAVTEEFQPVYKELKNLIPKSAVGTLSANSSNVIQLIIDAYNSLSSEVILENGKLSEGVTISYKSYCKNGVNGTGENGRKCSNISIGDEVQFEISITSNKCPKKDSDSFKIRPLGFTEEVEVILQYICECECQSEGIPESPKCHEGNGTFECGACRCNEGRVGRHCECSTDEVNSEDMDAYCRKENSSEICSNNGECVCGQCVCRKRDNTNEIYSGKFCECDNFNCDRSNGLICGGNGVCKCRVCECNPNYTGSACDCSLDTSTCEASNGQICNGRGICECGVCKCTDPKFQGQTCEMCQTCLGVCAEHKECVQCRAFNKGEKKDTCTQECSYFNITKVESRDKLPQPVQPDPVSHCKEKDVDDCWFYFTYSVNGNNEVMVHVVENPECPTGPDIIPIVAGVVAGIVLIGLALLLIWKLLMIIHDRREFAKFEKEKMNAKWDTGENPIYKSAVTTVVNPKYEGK

In the assay with integrin α3β1, anti-integrin α3 antibody P1B5 showed an inhibition of adhesion of A549 cells on laminin 5, 15 minutes of over 90% and an inhibition of adhesion of A549 cells on laminin 5, 1 hour of 20%.
For the molecule anti-integrin α6 antibody NKI-Go3, the inhibition of adhesion of A549 cells on laminin 5 after 1 hour, NKI-Go3 in association with P1B5 with integrin α6β4 is over 90%.
On to anti-integrin β4 antibody ASC-3, for which the inhibition of adhesion of A549 cells on laminin 5 after 1 hour, ASC-3 in association with P1B5 in the assay with integrin α6β4 was 70%.

B1: TS151r antibody (antibody, mouse IgG1, V domains shown)
VH: QVQLQQPGSVVVRPGASVKLSCKASGYTFTSSWMHWAKQRPGQGLEWIGQIHPNSGNTNYNEKFKVKATLTIDTSSSTAYVDLNSLTSGDSAVYYCARGDDAYYSGLYAMDYWGQGTSVTVSS
VL: DIVLTQSPASLAVSLGQRATISCRASQSVSTSRYSYMHWYQQIQGQPPKLLIKYASNLESGVPARFSGSGSGTDFTLNIHPVEEEDTATYHCQHSWEIPYTFGGGTTLEIK
notes: Murine monoclonal from a hybridoma
Take B1: the binding result with murine CD151 is “no binding”.

B2: TS151 antibody (antibody, mouse IgG1, V domains shown)
VH: QIQLVQSGPELKKPGETVKISCKASGYTFTDYSMHWVKQAPGKGLKWMGWINTETGEPTYTDDFKGRFAFSLETSANTAYLRINNLKNEDTATYFCARREYGNYYGMEYWGQGTSVTVSS
VL: DIVLTQSPASLAVSLGQRATISCRASQSVSTSTFSYIHWYQQKPGQPPKLLIKSASNLESGVPARFSGSGSGTDFTLTIHPVEEEDTATYFCQHSWEIPLTFGAGTKLELK
notes: Murine monoclonal from a hybridoma; also called anti-CD151 antibody TS151
Consider B2, for which the binding result in the assay with murine CD151 is recorded as “no binding”.
